One assay has as its system MSCs. Briefly: Messenger RNA decay assay in MSCs after actinomycin D. The class given is cell-based, mouse. The protocol: FIGS. 8A and 8B. IL-17A prevented the decay of iNOS mRNA, (FIG. 8A) the iNOS mRNA stability was measured at different time points after actinomycin D treatment in IFNγ+TNFα and IFNγ+TNFα+IL-17A treatment groups. (FIG. 8B) iNOS expression enhancing effect of IL-17A at different times after IFNγ and TNFα treatment.
FIGS. 13A and 13B. Wild-type (FIG. 13A) or […] (FIG. 13B) were treated with IFNγ and TNFα, with or without IL-17A (all cytokines supplemented at 10 ng/ml), for 6 hr, and then actinomycin D (5 μg/ml) was added to stop transcription. At the indicated time points, mRNA levels were assayed by quantitative RT-PCR, taking the expression level at the time of actinomycin.D addition as 100%. mRNA expression values are means±SD of three wells from a representative of three independent experiments.
Messenger RNA decay assays-Messenger RNA decay assays were performed essentially. MSCs were incubated with cytokine combinations for 6 hr. Actinomycin D (Act.D) was added into the medium at a final concentration of 5 μg/ml to stop transcription. At various time points after addition of Act.D, cells were harvested for extraction of total RNA.
Levels of iNOS, CXCL1, CCL2, CXCL10 and IL-6 mRNAs were measured at each time point by quantitative RT-PCR and normalized to levels of β-actin mRNA. Percentages of mRNA remaining for each time point were plotted versus time after Act.D addition. First order decay constants, k, were determined by nonlinear regression. The associated mRNA half-lives, t1/2, were calculated with the equation t1/2=ln2/k.

For assay [1], the system named is T cell hybridoma A1.1 cells. Briefly: T cell hybridoma A1.1 proliferation in co-culture with MSCs. It counts as cell-based, mouse. As for the experimental part:
FIG. 7. […] MSC cells and T-cell hybridoma A1.1 cell line were co-cultured at a ratio of 1:20. The co-cultures were supplemented with IFNγ+ TNF α, or IL-17A+IFNγ+TNFα. Cell proliferation was measured by the cell density indicated by O.D. 570 nm.
FIGS. 9A, 9B, 9C, 9D, 9E, 9F and 9G. (FIG. 9A). Cloned MSCs were first treated with the indicated combinations of recombinant cytokines IFNγ, TNFα, IL-17A (2 ng/ml each) for 12 hr, then cocultured with CD4^+ T cell blasts at a 1:20 ratio (MSC:T cells), and proliferation was assessed by 3H-thymidine incorporation after an additional 12 hr. (FIG. 9B). The mRNA expression of IL-17 receptor family members in MSCs or Raw 264.7 (Macrophages) were examined by RT-PCR. NC: No RT. (FIG. 9C). Surface expression of IL-17RA was detected by immunofluoresence or flow cytometry in cloned MSCs. (FIGS. 9D and 9E). MSCs were first treated with IFNγ and TNFα with or without IL-17A (10 ng/ml), IFNγ and TNFα were supplemented at different cytokine concentrations, for 12 hr, and then cocultured with CD4^+ T cell blasts (FIG. 9D) or T cell hybridoma A1.1 cells (FIG. 9E) at a ratio of 1:20 for 12 hr. T cell proliferation was measured by 3H-Tdr incorporation. (FIG. 9F). MSCs were first treated with IFNγ and TNFα (2 ng/ml) with graded concentrations of IL-17A, for 12 hr, and then cocultured with T cell hybridoma A1.1 cells at a ratio of 1:10 for 12 hr. T cell proliferation was measured by 3H-thymidine incorporation. (FIG. 9G). MSCs were cocultured with fresh C57BL/6 splenocytes plus anti-CD3, anti-CD28, and antibodies against IL-17A, at a 1:20 or 1:40 ratio (MSCs:splenocytes), for 48 hr, and then cell proliferation was assessed by 3H-thymidine incorporation. Proliferation values represent means±SEM of three wells from a representative of three experiments.
FIGS. 11A, 11B, 11C and 11D. (FIG. 11A) MSCs with Act1 knockdown or control were treated with IL-17A for different time and the phosphorylation levels of IκBα, ERK, p65, JNK were assessed by Western Blot. (FIG. 11B) MSCs with Act1 knockdown or control were treated with IFNγ and TNFα with or without IL-17A (all cytokines supplemented at 5 ng/ml) the protein levels of iNOS and Act1 were assessed by Western Blot. (FIG. 11C) MSCs (Act1 knockdown or control) were treated with different cytokines 12 hr, and iNOS expression was measured by quantitative RT-PCR. mRNA expression values are means±SEM. (FIG. 11D) MSCs (Act1 knockdown or control) were first treated with IFNγ and TNFα with or without IL-17A (all cytokines supplemented at 5 ng/ml) for 12 hr, and then cocultured with T cell hybridoma A1.1 cells at a ratio of 1:10 for 12 hr. T cell proliferation was measured by 3H-Tdr incorporation, taking the proliferation level of A1.1 alone as 100%.
FIGS. 14A and 14B. (FIG. 14A). WT MSCs or auf1^−/− MSCs were first treated with IFNγ and TNFα with or without IL-17A (all cytokines supplemented at 5 ng/ml) for 12 hr, and then cocultured with T cell hybridoma A1.1 cells at a ratio of 1:10 for 12 hr. T cell proliferation was measured by 3H-Tdr incorporation, taking the proliferation level of A1.1 alone as 100%. (FIG. 14B). WT MSCs or auf1^−/− MSCs were first treated with IFNγ and TNFα with or without IL-17A (10 ng/ml), IFNγ and TNFα were supplemented at different cytokine concentrations, for 12 hr, and then cocultured with T cell hybridoma A1.1 cells at a ratio of 1:10 for 12 hr. T cell proliferation was measured by 3H-Tdr incorporation, taking the proliferation level of A1.1 alone as 100%. […]

B1: IL-17A: recombinant mouse interleukin 17A (protein)
chain: AAIIPQSSACPNTEAKDFLQNVKVNLKVFNSLGAKVSSRRPSDYLNRSTSPWTLHRNEDPDRYPSVIWEAQCRHQRCVNAEGKLDHHMNSVLIQQEILVLKREPESCPFTFRVEKMLVGVGCTCVASIVRQAA
With B1, in the assay with MSCs (added to IFNγ+TNFα), the “half-lives of iNOS and IL-6 mRNAs in AUF1 knockout MSCs” value is recorded as “no effect”; the “stabilization of CXCL1 mRNA in AUF1 knockout MSCs” value is on record as “at least twofold”; the “stabilization of iNOS, IL-6, and CXCL1 mRNAs in wild-type MSCs” value is listed as “twofold stabilization”. Besides, in the assay with MSCs (supplement to IFNγ+TNFα, within the time points tested), the “iNOS mRNA stability” value is on record as “completely protected”. Also, the “enhancement of immunosuppression in absence of Act1” value in assay [1] (5 ng/ml, A1.1 1:10) is given as “not seen”. In assay [1] (IFNγ and TNFα 2 ng/ml each, 12 hr, A1.1 1:10), the “IL-17A concentration sufficient to elicit a dramatic decrease in T cell proliferation” value is 0.5 ng/mL. The “T-cell proliferation in MSC-T cell co-culture” value in assay [1] (MSC:A1.1 1:20, O.D. 570 nm) is listed as “enhanced the suppression”. Moreover, in assay [1] (with IFNγ+TNFα, A1.1 1:10), the “immunosuppressive activity of wild-type MSCs” value is given as “increased the immunosuppressive activity” and the “immunosuppressive effect of auf1−/− MSCs” value is “did not further enhance”.
